# Laboratory results from US20220229068A1, “DETECTION OF PROTEIN TO PROTEIN INTERACTIONS” (THE GOVERNING COUNCIL OF THE UNIVERSITY OF TORONTO, priority 2019, published 2022).
# What was measured:
# [1] = target: T1, ARFIP2 (prey, CIC format) (human) (UniProt P53365); experiment: SIMPL ELISA, bait-IN/prey-CIC
# T1 sequence (looked up): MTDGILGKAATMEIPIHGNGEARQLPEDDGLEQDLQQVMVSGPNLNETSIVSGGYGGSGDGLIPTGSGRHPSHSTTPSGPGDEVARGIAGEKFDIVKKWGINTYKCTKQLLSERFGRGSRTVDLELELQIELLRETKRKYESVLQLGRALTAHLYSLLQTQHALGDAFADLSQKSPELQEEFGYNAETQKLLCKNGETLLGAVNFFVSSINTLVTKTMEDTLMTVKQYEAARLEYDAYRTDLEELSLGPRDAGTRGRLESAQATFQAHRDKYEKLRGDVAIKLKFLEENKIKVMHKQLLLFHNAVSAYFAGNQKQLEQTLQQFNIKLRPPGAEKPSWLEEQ
# [2] = target: SKP2 (prey, CIC format) (human) (UniProt Q13309); experiment: SIMPL ELISA, bait-IN/prey-CIC
# [3] = target: RAD23A (prey, CIC format) (human) (UniProt P54725); experiment: SIMPL ELISA, bait-IN/prey-CIC
# [4] = target: PEX16 (prey, CIC format) (human) (UniProt Q9Y5Y5); experiment: SIMPL ELISA, bait-IN/prey-CIC
# [5] = target: RAP1A (prey, CIC format) (human) (UniProt P62834); experiment: SIMPL ELISA, bait-IN/prey-CIC
# [6] = target: CDK6 (prey, CIC format) (human) (UniProt Q00534); experiment: SIMPL ELISA, bait-IN/prey-CIC
# [7] = target: T2, PEX11B (prey, CIC format) (human) (UniProt O96011); experiment: SIMPL ELISA, bait-IN/prey-CIC
# T2 sequence (looked up): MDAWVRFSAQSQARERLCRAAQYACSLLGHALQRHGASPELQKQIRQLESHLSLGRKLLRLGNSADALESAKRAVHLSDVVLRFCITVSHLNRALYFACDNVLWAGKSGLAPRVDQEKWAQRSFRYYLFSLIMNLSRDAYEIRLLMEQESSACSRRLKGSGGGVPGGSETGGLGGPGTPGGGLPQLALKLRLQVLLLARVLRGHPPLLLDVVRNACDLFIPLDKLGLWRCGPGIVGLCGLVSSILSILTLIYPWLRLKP
# [8] = target: CCNA1 (prey, CIC format) (human) (UniProt P78396); experiment: SIMPL ELISA, bait-IN/prey-CIC
# [9] = target: T3, NRG1 (prey, CIC format) (human) (UniProt Q02297); experiment: SIMPL ELISA, bait-IN/prey-CIC
# T3 sequence (looked up): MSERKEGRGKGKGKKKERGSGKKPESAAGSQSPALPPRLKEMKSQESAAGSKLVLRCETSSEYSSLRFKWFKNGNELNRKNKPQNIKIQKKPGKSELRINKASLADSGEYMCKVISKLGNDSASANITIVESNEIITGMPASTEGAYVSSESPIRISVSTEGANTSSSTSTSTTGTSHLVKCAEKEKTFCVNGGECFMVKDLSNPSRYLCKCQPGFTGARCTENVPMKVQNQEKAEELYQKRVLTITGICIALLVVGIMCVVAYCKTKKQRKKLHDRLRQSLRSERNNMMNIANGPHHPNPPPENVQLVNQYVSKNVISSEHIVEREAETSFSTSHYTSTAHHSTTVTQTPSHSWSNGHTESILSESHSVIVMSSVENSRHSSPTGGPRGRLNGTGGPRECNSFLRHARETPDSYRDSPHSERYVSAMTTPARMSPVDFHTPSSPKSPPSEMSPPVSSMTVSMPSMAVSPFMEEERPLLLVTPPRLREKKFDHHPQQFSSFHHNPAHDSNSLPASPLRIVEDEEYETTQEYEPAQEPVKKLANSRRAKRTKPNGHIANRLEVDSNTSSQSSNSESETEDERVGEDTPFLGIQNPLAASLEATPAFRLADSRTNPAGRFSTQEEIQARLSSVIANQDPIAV
# [10] = target: FOS (prey, CIC format) (human) (UniProt P01100); experiment: SIMPL ELISA, bait-IN/prey-CIC
# [11] = target: SKR-2 (C. elegans prey, IC format) (C. elegans); experiment: SIMPL ELISA, C. elegans lysate, IN/IC; ratio of spliced signal to total signal
# [12] = target: SKR-2 (C. elegans prey, CIC format) (C. elegans); experiment: SIMPL ELISA, C. elegans lysate, IN/CIC; ratio of spliced signal to total signal
# [13] = target: FGFR1 (prey, CIC format) (human) (UniProt P11362); experiment: SIMPL ELISA, bait-IN/prey-CIC
# [14] = target: T4, RB1 (prey, CIC format) (human) (UniProt P06400); experiment: SIMPL ELISA, bait-IN/prey-CIC
# T4 sequence (looked up): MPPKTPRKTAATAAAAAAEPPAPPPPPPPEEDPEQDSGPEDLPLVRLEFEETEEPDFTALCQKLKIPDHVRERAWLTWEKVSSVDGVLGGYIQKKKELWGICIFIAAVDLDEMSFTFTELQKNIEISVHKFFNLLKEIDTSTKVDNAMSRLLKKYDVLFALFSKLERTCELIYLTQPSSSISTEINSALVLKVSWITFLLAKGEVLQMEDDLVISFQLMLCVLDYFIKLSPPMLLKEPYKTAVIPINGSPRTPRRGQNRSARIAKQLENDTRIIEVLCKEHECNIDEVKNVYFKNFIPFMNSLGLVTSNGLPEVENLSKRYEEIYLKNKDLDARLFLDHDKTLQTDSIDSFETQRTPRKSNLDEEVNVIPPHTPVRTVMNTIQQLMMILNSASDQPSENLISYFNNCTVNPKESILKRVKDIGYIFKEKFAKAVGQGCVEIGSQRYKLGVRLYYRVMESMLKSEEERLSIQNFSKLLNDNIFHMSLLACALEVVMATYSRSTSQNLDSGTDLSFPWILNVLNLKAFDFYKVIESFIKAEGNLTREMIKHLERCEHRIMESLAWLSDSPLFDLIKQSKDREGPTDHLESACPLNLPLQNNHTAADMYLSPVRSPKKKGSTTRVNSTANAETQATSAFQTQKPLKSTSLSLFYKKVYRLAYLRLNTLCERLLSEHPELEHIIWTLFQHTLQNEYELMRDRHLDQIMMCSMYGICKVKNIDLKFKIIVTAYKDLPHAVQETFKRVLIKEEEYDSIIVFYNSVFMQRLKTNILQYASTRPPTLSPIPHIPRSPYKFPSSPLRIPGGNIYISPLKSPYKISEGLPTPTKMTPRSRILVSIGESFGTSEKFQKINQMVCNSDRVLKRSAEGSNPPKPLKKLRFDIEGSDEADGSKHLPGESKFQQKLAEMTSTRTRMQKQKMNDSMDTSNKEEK
# [15] = target: NCK1 (prey, CIC format) (human) (UniProt P16333); experiment: SIMPL ELISA, bait-IN/prey-CIC
# [16] = target: NFE2L1 (prey, CIC format) (human) (UniProt Q14494); experiment: SIMPL ELISA, bait-IN/prey-CIC
# [17] = target: GTF2F2 (prey, CIC format) (human) (UniProt P13984); experiment: SIMPL ELISA, bait-IN/prey-CIC
# [18] = target: T5, NOD1 (prey, CIC format) (human) (UniProt Q9Y239); experiment: SIMPL ELISA, bait-IN/prey-CIC
# T5 sequence (looked up): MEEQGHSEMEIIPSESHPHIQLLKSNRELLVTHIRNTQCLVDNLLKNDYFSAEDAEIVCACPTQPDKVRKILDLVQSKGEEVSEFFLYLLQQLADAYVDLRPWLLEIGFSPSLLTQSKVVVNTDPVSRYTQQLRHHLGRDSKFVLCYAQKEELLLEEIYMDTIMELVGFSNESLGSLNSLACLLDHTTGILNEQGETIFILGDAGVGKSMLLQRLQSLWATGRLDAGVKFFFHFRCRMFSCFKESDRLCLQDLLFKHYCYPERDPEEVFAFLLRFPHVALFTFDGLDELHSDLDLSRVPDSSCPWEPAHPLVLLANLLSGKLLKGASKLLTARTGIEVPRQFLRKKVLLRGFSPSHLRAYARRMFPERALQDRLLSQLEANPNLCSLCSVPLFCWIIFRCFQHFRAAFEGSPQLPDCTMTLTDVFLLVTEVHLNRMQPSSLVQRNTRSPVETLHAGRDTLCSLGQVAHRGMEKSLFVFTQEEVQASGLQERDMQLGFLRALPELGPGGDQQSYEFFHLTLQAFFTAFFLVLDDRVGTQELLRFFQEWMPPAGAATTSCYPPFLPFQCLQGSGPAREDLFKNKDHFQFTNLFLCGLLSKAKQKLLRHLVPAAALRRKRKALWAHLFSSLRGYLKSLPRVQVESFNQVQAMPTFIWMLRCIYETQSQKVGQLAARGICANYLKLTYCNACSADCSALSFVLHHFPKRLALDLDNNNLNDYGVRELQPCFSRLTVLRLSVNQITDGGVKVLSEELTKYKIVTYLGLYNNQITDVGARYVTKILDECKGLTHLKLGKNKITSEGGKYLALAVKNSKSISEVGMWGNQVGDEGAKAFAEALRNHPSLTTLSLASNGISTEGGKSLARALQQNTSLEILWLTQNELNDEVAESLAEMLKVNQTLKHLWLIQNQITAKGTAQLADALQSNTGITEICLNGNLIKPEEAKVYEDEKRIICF
# [19] = target: IGFBP4 (prey, CIC format) (human) (UniProt P22692); experiment: SIMPL ELISA, bait-IN/prey-CIC
# [20] = target: RPA3 (prey, CIC format) (human) (UniProt P35244); experiment: SIMPL ELISA, bait-IN/prey-CIC
# [21] = target: HSP90AA1 (prey, CIC format) (human) (UniProt P07900); experiment: SIMPL ELISA, bait-IN/prey-CIC
# [22] = target: HGS (prey, CIC format) (human) (UniProt O14964); experiment: SIMPL ELISA, bait-IN/prey-CIC
# [23] = target: SRC (prey, CIC format) (human) (UniProt P12931); experiment: SIMPL ELISA, bait-IN/prey-CIC
# [24] = target: PDGFRB (prey, CIC format) (human) (UniProt P09619); experiment: SIMPL ELISA, bait-IN/prey-CIC
# [25] = target: CXCR2 (prey, CIC format) (human) (UniProt P25025); experiment: SIMPL ELISA, bait-IN/prey-CIC
# [26] = target: SMAD4 (prey, CIC format) (human) (UniProt Q13485); experiment: SIMPL ELISA, bait-IN/prey-CIC
# Sequence of SMAD4 (prey, CIC format) (human) (Q13485 whole entry): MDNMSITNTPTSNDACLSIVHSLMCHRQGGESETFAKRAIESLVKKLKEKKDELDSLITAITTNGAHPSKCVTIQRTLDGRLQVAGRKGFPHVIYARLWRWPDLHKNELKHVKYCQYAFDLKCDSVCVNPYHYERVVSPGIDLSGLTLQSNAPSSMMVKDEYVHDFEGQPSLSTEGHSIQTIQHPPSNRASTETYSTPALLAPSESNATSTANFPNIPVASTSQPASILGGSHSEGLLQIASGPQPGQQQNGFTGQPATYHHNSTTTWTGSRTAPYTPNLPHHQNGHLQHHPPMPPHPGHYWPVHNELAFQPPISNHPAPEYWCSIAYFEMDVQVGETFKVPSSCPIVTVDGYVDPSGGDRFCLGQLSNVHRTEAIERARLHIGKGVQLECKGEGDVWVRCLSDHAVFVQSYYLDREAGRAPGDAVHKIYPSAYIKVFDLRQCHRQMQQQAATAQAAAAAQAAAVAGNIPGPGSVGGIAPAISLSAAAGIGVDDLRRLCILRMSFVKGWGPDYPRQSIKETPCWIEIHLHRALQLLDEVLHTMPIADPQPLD
# Sequence of RIPK2 (bait, IN format) (O43353 whole entry): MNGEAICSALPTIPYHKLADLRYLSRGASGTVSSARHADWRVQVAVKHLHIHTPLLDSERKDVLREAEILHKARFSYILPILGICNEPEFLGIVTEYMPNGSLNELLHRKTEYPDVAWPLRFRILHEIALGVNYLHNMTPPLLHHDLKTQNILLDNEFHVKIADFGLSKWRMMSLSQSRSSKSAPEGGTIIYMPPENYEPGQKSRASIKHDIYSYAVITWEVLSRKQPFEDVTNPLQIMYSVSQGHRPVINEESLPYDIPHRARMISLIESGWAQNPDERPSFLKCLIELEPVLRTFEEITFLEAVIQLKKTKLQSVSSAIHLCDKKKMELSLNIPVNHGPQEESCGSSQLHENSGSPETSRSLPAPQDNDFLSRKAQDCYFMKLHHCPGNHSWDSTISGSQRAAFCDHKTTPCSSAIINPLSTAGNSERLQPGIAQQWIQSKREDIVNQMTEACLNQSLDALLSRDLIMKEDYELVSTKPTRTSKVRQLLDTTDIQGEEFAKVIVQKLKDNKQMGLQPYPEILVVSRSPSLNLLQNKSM
# Sequence of FOS (prey, CIC format) (human) (P01100 whole entry, canonical isoform): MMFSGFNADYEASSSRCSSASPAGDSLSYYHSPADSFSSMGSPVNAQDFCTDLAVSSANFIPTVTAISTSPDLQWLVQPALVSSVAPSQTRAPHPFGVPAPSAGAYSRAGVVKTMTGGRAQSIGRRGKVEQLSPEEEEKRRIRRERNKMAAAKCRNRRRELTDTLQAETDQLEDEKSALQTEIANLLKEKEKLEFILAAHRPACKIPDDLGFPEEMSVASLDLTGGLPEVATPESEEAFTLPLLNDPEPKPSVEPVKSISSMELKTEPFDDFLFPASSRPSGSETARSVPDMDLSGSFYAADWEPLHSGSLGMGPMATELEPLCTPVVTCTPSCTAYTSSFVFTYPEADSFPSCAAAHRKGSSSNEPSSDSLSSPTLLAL
# Sequence of PEX16 (prey, CIC format) (human) (Q9Y5Y5 whole entry): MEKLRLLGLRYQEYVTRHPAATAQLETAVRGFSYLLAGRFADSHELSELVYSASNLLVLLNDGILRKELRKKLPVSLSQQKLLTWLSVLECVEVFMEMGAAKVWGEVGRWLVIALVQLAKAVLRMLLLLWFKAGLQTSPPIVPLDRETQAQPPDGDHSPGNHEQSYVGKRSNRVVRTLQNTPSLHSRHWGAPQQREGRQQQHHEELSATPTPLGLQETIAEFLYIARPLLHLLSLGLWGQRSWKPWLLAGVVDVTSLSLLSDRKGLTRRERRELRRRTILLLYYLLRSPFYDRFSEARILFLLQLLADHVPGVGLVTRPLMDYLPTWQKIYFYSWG
# Sequence of RAP1A (prey, CIC format) (human) (P62834 whole entry): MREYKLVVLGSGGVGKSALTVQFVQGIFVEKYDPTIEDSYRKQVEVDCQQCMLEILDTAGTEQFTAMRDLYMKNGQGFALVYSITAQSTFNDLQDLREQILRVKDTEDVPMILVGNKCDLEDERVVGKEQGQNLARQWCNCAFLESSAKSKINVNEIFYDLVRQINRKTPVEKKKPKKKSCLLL
# Sequence of IGFBP4 (prey, CIC format) (human) (P22692 22-258 limits assumed): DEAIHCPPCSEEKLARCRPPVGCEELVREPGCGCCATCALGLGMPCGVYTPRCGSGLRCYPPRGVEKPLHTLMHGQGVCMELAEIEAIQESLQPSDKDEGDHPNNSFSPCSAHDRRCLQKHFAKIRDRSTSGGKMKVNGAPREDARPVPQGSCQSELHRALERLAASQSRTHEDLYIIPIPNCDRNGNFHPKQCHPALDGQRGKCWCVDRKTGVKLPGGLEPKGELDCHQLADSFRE
# Sequence of CDK6 (prey, CIC format) (human) (Q00534 whole entry): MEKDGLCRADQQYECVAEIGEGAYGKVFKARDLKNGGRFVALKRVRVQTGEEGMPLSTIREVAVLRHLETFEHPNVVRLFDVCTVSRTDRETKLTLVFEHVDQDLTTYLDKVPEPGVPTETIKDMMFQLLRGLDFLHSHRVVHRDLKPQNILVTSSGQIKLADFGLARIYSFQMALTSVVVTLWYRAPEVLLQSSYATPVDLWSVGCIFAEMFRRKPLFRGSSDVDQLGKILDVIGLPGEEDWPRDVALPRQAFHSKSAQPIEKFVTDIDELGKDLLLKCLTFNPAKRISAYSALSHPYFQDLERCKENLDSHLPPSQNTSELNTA
# Sequence of RAD23A (prey, CIC format) (human) (P54725 whole entry): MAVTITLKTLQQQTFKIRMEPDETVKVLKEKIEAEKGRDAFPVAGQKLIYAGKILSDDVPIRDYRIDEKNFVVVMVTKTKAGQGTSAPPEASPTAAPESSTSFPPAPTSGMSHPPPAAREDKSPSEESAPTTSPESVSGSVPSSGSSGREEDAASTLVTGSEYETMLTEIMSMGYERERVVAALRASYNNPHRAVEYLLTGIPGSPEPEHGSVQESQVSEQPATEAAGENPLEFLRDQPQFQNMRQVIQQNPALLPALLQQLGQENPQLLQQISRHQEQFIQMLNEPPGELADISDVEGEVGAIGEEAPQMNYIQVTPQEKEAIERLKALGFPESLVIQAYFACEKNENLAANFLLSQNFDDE
# Sequence of PDGFRB (prey, CIC format) (human) (P09619 33-1106 limits assumed): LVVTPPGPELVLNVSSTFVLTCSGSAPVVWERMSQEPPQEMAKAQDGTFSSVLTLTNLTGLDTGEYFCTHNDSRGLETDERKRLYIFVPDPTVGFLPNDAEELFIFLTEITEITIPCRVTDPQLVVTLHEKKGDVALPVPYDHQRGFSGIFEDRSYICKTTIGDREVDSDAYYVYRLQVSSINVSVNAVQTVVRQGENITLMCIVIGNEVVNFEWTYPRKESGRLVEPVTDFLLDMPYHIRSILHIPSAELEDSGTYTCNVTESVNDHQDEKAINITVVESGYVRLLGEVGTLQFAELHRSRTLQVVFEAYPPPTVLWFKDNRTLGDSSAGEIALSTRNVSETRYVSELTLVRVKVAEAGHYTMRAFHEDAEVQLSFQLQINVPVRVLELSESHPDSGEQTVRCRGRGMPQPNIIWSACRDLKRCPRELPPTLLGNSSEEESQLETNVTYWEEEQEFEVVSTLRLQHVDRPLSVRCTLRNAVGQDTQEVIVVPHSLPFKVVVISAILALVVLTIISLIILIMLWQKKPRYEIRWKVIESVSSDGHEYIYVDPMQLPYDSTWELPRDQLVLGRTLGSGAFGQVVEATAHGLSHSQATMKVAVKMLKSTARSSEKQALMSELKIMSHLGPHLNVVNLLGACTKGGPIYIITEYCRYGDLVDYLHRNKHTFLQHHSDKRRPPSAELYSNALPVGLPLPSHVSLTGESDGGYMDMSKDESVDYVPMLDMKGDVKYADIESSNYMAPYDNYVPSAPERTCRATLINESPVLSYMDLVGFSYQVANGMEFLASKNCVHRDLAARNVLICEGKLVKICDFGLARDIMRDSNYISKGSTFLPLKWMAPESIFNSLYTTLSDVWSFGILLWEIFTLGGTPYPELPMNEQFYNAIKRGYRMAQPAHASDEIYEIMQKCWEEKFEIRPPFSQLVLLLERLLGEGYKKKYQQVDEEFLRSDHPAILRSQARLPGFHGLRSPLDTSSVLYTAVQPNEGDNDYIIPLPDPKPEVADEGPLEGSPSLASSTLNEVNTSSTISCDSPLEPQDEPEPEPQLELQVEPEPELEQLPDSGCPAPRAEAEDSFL
# Sequence of NFE2L1 (prey, CIC format) (human) (Q14494 whole entry): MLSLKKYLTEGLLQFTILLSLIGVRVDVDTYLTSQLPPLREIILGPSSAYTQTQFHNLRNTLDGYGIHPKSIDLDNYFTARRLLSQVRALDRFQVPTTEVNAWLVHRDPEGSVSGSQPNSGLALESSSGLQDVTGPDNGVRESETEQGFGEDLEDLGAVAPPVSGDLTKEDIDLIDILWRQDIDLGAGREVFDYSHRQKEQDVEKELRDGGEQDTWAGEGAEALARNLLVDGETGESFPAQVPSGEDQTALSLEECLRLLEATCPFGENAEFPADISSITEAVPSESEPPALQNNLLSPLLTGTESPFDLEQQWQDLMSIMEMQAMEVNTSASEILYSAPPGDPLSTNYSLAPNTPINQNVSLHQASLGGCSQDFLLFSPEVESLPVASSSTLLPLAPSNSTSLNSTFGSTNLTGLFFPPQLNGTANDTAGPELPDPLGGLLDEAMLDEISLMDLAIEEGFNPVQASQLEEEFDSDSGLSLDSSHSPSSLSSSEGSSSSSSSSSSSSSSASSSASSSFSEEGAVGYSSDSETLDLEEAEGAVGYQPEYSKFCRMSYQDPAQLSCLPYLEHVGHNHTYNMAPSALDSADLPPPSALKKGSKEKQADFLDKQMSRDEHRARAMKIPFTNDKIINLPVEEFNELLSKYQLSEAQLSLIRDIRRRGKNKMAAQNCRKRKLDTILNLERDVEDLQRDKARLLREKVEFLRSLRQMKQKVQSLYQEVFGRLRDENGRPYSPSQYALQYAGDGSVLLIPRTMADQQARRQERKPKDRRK
# Sequence of RPA3 (prey, CIC format) (human) (P35244 whole entry): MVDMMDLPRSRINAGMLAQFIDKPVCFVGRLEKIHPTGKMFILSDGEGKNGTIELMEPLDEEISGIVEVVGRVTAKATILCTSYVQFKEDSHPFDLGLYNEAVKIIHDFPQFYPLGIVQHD
substance,measurement,setting,value
"ARF1 (bait, IN format) (from UniProt P84077 1-181)",PLU mean,[1],0.491
same,PLU mean,[2],0.301
"B2M (bait, IN format) (from UniProt P61769 21-119)",PLU mean,[3],0.0155
same,PLU mean,[4],0.0408
"BAK1 (bait, IN format) (from UniProt Q16611 1-211)",PLU mean,[5],0.564
"CCND3 (bait, IN format) (from UniProt P30281 1-292)",PLU mean,[6],2.72
"CDKN1A (bait, IN format) (from UniProt P38936 1-164)",PLU mean,[7],0.113
same,PLU mean,[8],0.516
"DDIT3 (bait, IN format) (from UniProt P35638 1-169)",PLU mean,[9],0.0963
same,PLU mean,[10],0.642
"FBXA-196 (C. elegans bait, IN-V5/HA)",ELISA Value Replicate 1,[11],0.81
same,ELISA Value Replicate 2,[11],0.51
same,ELISA Value Replicate 1,[12],1.1
same,ELISA Value Replicate 2,[12],0.28
"FBXA-215 (C. elegans bait, IN-V5/HA)",ELISA Value Replicate 1,[11],0.84
same,ELISA Value Replicate 2,[11],0.58
same,ELISA Value Replicate 1,[12],0.73
same,ELISA Value Replicate 2,[12],0.42
"FGF1 (bait, IN format) (from UniProt P05230 1-155) (ligand)",PLU mean,[13],0.334
same,PLU mean,[14],0.324
same,PLU mean,[15],0.374
"GRAP2 (bait, IN format) (from UniProt O75791 1-330)",PLU mean,[16],0.131
"GTF2F1 (bait, IN format) (from UniProt P35269 1-517)",PLU mean,[17],3.24
same,PLU mean,[18],0.133
"HIF1A (bait, IN format) (from UniProt Q16665 1-826)",PLU mean,[1],0.324
"IGF2 (bait, IN format) (from UniProt P01344 25-180) (ligand)",PLU mean,[19],0.943
same,PLU mean,[1],0.266
same,PLU mean,[20],0.525
same,PLU mean,[21],0.404
"MAPK7 (bait, IN format) (from UniProt Q13164 1-816) (enzyme)",PLU mean,[4],0.231
"NF2 (bait, IN format) (from UniProt P35240 1-595)",PLU mean,[22],0.836
same,PLU mean,[10],0.481
"PPP3CA (bait, IN format) (from UniProt Q08209 1-521)",PLU mean,[10],0.245
"PTK2/FAK (bait, IN format) (from UniProt Q05397 1-1052) (enzyme)",PLU mean,[23],0.599
"RAF1 (bait, IN format) (from UniProt P04049 1-648) (enzyme)",PLU mean,[5],0.578
"RIPK2 (bait, IN format) (from UniProt O43353 1-540)",PLU mean,[19],0.555
same,PLU mean,[18],1.17
same,PLU mean,[24],0.881
"SMAD3 (bait, IN format) (from UniProt P84022 1-425)",PLU mean,[25],0.144
same,PLU mean,[26],0.399
"T10E9.1 (C. elegans bait, IN-V5/HA)",ELISA Value Replicate 1,[11],0.78
same,ELISA Value Replicate 2,[11],0.55
"TNFSF10 (bait, IN format) (from UniProt P50591 1-281) (ligand)",PLU mean,[6],0.316
